± gives the standard deviation of the averaged measurements.
Key:
Saccharomyces cerevisiae [1] = experiment: protein stability index of tFT-peptide fusion (C-terminal peptide) (PSI (0-1 scale)); higher = more stable (slower turnover)
Method: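 MPS profiling in S. cerevisiae of the tFT-X12 degron library: putative degron peptides plus stable controls, 12 aa, fused to the C-terminus of a sfGFP-mCherry timer. Cells are FACS-sorted into 8 mCherry/sfGFP bins and deep-sequenced. PSI runs from 0 (unstable) to 1 (stable). Backgrounds are wild type, das1Δ and doa10Δ at 30 °C, and wild type, das1Δ, cdc34-1 and cdc53-1 at 37 °C; 2-3 technical replicates each.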

Saccharomyces cerevisiae [2] = experiment: as above; conditions: genetic background: wild type; temperature: 30 C
[3] = genetic background: cdc34-1, temperature: 37 C
[4] = genetic background: cdc53-1, temperature: 37 C
[5] = genetic background: das1 deletion, temperature: 30 C
[6] = genetic background: das1 deletion, temperature: 37 C
[7] = genetic background: doa10 deletion, temperature: 30 C
[8] = genetic background: wild type, temperature: 30 C
[9] = genetic background: wild type, temperature: 37 C
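Further: PSI is a weighted mean of sequencing reads over stability bins, variants kept only with over 10 reads, mCherry proximal and sfGFP distal, peptide attached via GGGS linker.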

Sequence: RPPPAANFTRSS
- protein stability index (Saccharomyces cerevisiae [1]; [3]): 0.655 ± 0.022
- protein stability index (Saccharomyces cerevisiae [1]; [4]): 0.688 ± 0.024
- protein stability index (Saccharomyces cerevisiae [1]; [5]): 0.665 ± 0.016
- protein stability index (Saccharomyces cerevisiae [1]; [6]): 0.698 ± 0.012
- protein stability index (Saccharomyces cerevisiae [1]; [7]): 0.665 ± 0.018
- protein stability index (Saccharomyces cerevisiae [1]; [8]): 0.661 ± 0.0078
- protein stability index (Saccharomyces cerevisiae [1]; [9]): 0.679 ± 0.012

Sequence: LWGVGFLFVLVG
- protein stability index (Saccharomyces cerevisiae [1]; [3]): 0.1858 ± 0.0014
- protein stability index (Saccharomyces cerevisiae [1]; [4]): 0.268 ± 0.024
- protein stability index (Saccharomyces cerevisiae [1]; [5]): 0.229 ± 0.036
- protein stability index (Saccharomyces cerevisiae [1]; [6]): 0.403 ± 0.039
- protein stability index (Saccharomyces cerevisiae [1]; [7]): 0.105 ± 0.0094
- protein stability index (Saccharomyces cerevisiae [1]; [8]): 0.131 ± 0.017
- protein stability index (Saccharomyces cerevisiae [1]; [9]): 0.183 ± 0.014

Sequence: PHSMRTTTIMCS
- protein stability index (Saccharomyces cerevisiae [1]; [3]): 0.357 ± 0.034
- protein stability index (Saccharomyces cerevisiae [1]; [4]): 0.444 ± 0.021
- protein stability index (Saccharomyces cerevisiae [1]; [5]): 0.296 ± 0.031
- protein stability index (Saccharomyces cerevisiae [1]; [6]): 0.516 ± 0.0075
- protein stability index (Saccharomyces cerevisiae [1]; [7]): 0.214 ± 0.0032
- protein stability index (Saccharomyces cerevisiae [1]; [8]): 0.243 ± 0.056
- protein stability index (Saccharomyces cerevisiae [1]; [9]): 0.436 ± 0.0045

Sequence: FPPCSFLGFLVF
- protein stability index (Saccharomyces cerevisiae [1]; [3]): 0.69 ± 0.027
- protein stability index (Saccharomyces cerevisiae [1]; [4]): 0.768 ± 0.014
- protein stability index (Saccharomyces cerevisiae [1]; [5]): 0.571 ± 0.023
- protein stability index (Saccharomyces cerevisiae [1]; [6]): 0.73 ± 0.014
- protein stability index (Saccharomyces cerevisiae [1]; [7]): 0.556 ± 0.018
- protein stability index (Saccharomyces cerevisiae [1]; [8]): 0.556 ± 0.014
- protein stability index (Saccharomyces cerevisiae [1]; [9]): 0.688 ± 0.034

Sequence: GFTIFFFFFFFV
- protein stability index (Saccharomyces cerevisiae [1]; [3]): 0.227 ± 0.043
- protein stability index (Saccharomyces cerevisiae [1]; [4]): 0.234 ± 0.018
- protein stability index (Saccharomyces cerevisiae [1]; [5]): 0.193 ± 0.035
- protein stability index (Saccharomyces cerevisiae [1]; [6]): 0.266 ± 0.045
- protein stability index (Saccharomyces cerevisiae [1]; [7]): 0.287 ± 0.056
- protein stability index (Saccharomyces cerevisiae [1]; [8]): 0.165 ± 0.0033
- protein stability index (Saccharomyces cerevisiae [1]; [9]): 0.264 ± 0.0077

Sequence: YVFSPLSCWASV
- protein stability index (Saccharomyces cerevisiae [1]; [3]): 0.692 ± 0.056
- protein stability index (Saccharomyces cerevisiae [1]; [4]): 0.74 ± 0.0086
- protein stability index (Saccharomyces cerevisiae [1]; [5]): 0.608 ± 0.021
- protein stability index (Saccharomyces cerevisiae [1]; [6]): 0.7459 ± 0.0044
- protein stability index (Saccharomyces cerevisiae [1]; [7]): 0.603 ± 0.037
- protein stability index (Saccharomyces cerevisiae [1]; [8]): 0.596 ± 0.017
- protein stability index (Saccharomyces cerevisiae [1]; [9]): 0.695 ± 0.019

Sequence: YGETRGGGRGRW
- protein stability index (Saccharomyces cerevisiae [1]; [3]): 0.587 ± 0.049
- protein stability index (Saccharomyces cerevisiae [1]; [4]): 0.887 ± 0.038
- protein stability index (Saccharomyces cerevisiae [1]; [5]): 0.475 ± 0.034
- protein stability index (Saccharomyces cerevisiae [1]; [6]): 0.766 ± 0.16
- protein stability index (Saccharomyces cerevisiae [1]; [7]): 0.563 ± 0.13
- protein stability index (Saccharomyces cerevisiae [1]; [8]): 0.538 ± 0.12
- protein stability index (Saccharomyces cerevisiae [1]; [9]): 0.65 ± 0.11

Sequence: GPPPPPSLLLLC
- protein stability index (Saccharomyces cerevisiae [1]; [3]): 0.6 ± 0.04
- protein stability index (Saccharomyces cerevisiae [1]; [4]): 0.712 ± 0.0078
- protein stability index (Saccharomyces cerevisiae [1]; [5]): 0.614 ± 0.025
- protein stability index (Saccharomyces cerevisiae [1]; [6]): 0.721 ± 0.011
- protein stability index (Saccharomyces cerevisiae [1]; [7]): 0.201 ± 0.0072
- protein stability index (Saccharomyces cerevisiae [1]; [8]): 0.211 ± 0.015
- protein stability index (Saccharomyces cerevisiae [1]; [9]): 0.345 ± 0.02

Sequence: GAVGRWGWVSFV
- protein stability index (Saccharomyces cerevisiae [1]; [3]): 0.699 ± 0.038
- protein stability index (Saccharomyces cerevisiae [1]; [4]): 0.7732 ± 0.0059
- protein stability index (Saccharomyces cerevisiae [1]; [5]): 0.653 ± 0.014
- protein stability index (Saccharomyces cerevisiae [1]; [6]): 0.7883 ± 0.0033
- protein stability index (Saccharomyces cerevisiae [1]; [7]): 0.337 ± 0.0076
- protein stability index (Saccharomyces cerevisiae [1]; [8]): 0.357 ± 0.025
- protein stability index (Saccharomyces cerevisiae [1]; [9]): 0.638 ± 0.052

Sequence: GVFGGAGCGVVL
- protein stability index (Saccharomyces cerevisiae [2]): 0.724 ± 0.022

Sequence: TVWSSPPSRRSS
- protein stability index (Saccharomyces cerevisiae [2]): 0.699 ± 0.043

Sequence: VVSHRGVGKGEG
- protein stability index (Saccharomyces cerevisiae [2]): 0.607 ± 0.047

Sequence: GLSRAWVAGVRG
- protein stability index (Saccharomyces cerevisiae [2]): 0.735 ± 0.037

Sequence: ATFSVMRGQHGQ
- protein stability index (Saccharomyces cerevisiae [2]): 0.686 ± 0.0057

Sequence: ELDFVVNKIQDW
- protein stability index (Saccharomyces cerevisiae [2]): 0.828 ± 0.096

Sequence: NWARLGVRMGAA
- protein stability index (Saccharomyces cerevisiae [2]): 0.66 ± 0.013

Sequence: VWGLGGEFWWGV
- protein stability index (Saccharomyces cerevisiae [2]): 0.745 ± 0.014

Sequence: CTLSQGLSGSRI
- protein stability index (Saccharomyces cerevisiae [2]): 0.6609 ± 0.0024

Sequence: RVGVEYGETGGG
- protein stability index (Saccharomyces cerevisiae [2]): 0.732 ± 0.29

Sequence: LPPTPPLPRSLP
- protein stability index (Saccharomyces cerevisiae [2]): 0.716 ± 0.066

Sequence: VPGIGGGVSVRG
- protein stability index (Saccharomyces cerevisiae [2]): 0.612 ± 0.14

Sequence: LFGPRCTSSSAV
- protein stability index (Saccharomyces cerevisiae [2]): 0.689 ± 0.015

Sequence: VIRDISAFSQVV
- protein stability index (Saccharomyces cerevisiae [2]): 0.677 ± 0.07

Sequence: LVSGRRWMLGSG
- protein stability index (Saccharomyces cerevisiae [2]): 0.6451 ± 0.0023

Sequence: GAFLGSPWAAAS
- protein stability index (Saccharomyces cerevisiae [2]): 0.731 ± 0.04

Sequence: SGAGRRRGGARE
- protein stability index (Saccharomyces cerevisiae [2]): 0.651 ± 0.031

Sequence: YSDNIHIEFEDC
- protein stability index (Saccharomyces cerevisiae [2]): 0.737 ± 0.068

Sequence: VVFEVFLTHMSM
- protein stability index (Saccharomyces cerevisiae [2]): 0.624 ± 0.065

Sequence: CSVGLPPLPPLH
- protein stability index (Saccharomyces cerevisiae [2]): 0.704 ± 0.076

Sequence: FSILYLLPPGPL
- protein stability index (Saccharomyces cerevisiae [2]): 0.663 ± 0.092

Sequence: FCSVTLPSRSCV
- protein stability index (Saccharomyces cerevisiae [2]): 0.727 ± 0.098

Sequence: PSAPPSLPFLPY
- protein stability index (Saccharomyces cerevisiae [2]): 0.692 ± 0.032

Sequence: PLFPPASVVVLY
- protein stability index (Saccharomyces cerevisiae [2]): 0.663 ± 0.036

Sequence: ALRGWIRRRFPV
- protein stability index (Saccharomyces cerevisiae [2]): 0.671 ± 0.03

Sequence: PHLPSPRPRPPP
- protein stability index (Saccharomyces cerevisiae [2]): 0.722 ± 0.012

Sequence: SYGPKMAKAVFR
- protein stability index (Saccharomyces cerevisiae [2]): 0.706 ± 0.056

Sequence: APPPPPIPAPPP
- protein stability index (Saccharomyces cerevisiae [2]): 0.714 ± 0.038

Sequence: PHWGKRINEAHT
- protein stability index (Saccharomyces cerevisiae [2]): 0.6851 ± 0.0029

Sequence: KIKNKYKEKKKK
- protein stability index (Saccharomyces cerevisiae [2]): 0.67 ± 0.0079

Sequence: LWDQFAVSCFGG
- protein stability index (Saccharomyces cerevisiae [2]): 0.745 ± 0.016

Reference: the supplement of paper PMC10724198
